The values that follow come from paper PMC5816542, “In vitro and in vivo characterization of three Cellvibrio japonicus glycoside hydrolase family 5 members reveals potent xyloglucan backbone-cleaving functions” (Biotechnology for Biofuels, 2018).

In one data set the target is T1, CjGH5D (Cellvibrio japonicus, UniProt B3PD52).
T1 construct: gene cel5D; GH5_4 catalytic module, lipoprotein signal peptide and serine-rich linker removed; N-terminal His6 (pET28a), E. coli; borders 96-468 are those of the crystal model
Put plainly: time-dependent inactivation, residual XXXG-CNP hydrolysis at […] nm. The format is biochemical. Particulars: covalent; irreversible active-site affinity label; 20 mM phosphate pH 7.5, 40 °C, 0.1 mg/mL BSA; XXXG-CNP substrate.

Substrate in data set [1]: O=[N+]([O-])c1ccc(O[C@@H]2O[C@H](CO)[C@@H](O[C@@H]3O[C@H](CO)[C@@H](O[C@@H]4O[C@H](CO)[C@@H](O)[C@H](O)[C@H]4O)[C@H](O)[C@H]3O)[C@H](O)[C@H]2O)c(Cl)c1
Put plainly: purified protein. The format is biochemical, Cellvibrio japonicus. Particulars: 50 mM phosphate pH 7.5, 55 °C.

Substrate in data set [2]: O=[N+]([O-])c1ccc(O[C@@H]2O[C@H](CO)[C@@H](O[C@@H]3O[C@H](CO[C@H]4OC[C@@H](O)[C@H](O)[C@H]4O[C@@H]4O[C@H](CO)[C@H](O)[C@H](O)[C@H]4O)[C@@H](O[C@@H]4O[C@H](CO[C@H]5OC[C@@H](O)[C@H](O)[C@H]5O[C@@H]5O[C@H](CO)[C@H](O)[C@H](O)[C@H]5O)[C@@H](O[C@@H]5O[C@H](CO[C@H]6OC[C@@H](O)[C@H](O)[C@H]6O)[C@@H](O)[C@H](O)[C@H]5O)[C@H](O)[C@H]4O)[C@H](O)[C@H]3O)[C@H](O)[C@H]2O)c(Cl)c1
Put plainly: purified protein. The format is biochemical, Cellvibrio japonicus.

Substrate in data set [3]: O=[N+]([O-])c1ccc(O[C@@H]2O[C@H](CO)[C@@H](O[C@@H]3O[C@H](CO)[C@@H](O[C@@H]4O[C@H](CO)[C@@H](O[C@@H]5O[C@H](CO)[C@@H](O)[C@H](O)[C@H]5O)[C@H](O)[C@H]4O)[C@H](O)[C@H]3O)[C@H](O)[C@H]2O)c(Cl)c1
In words: purified protein. The format is biochemical, Cellvibrio japonicus. Particulars: 50 mM phosphate pH 7.5, 55 °C.

Substrate in data set [4]: O=[N+]([O-])c1ccc(O[C@@H]2O[C@H](CO)[C@@H](O[C@@H]3O[C@H](CO[C@H]4OC[C@@H](O)[C@H](O)[C@H]4O)[C@@H](O[C@@H]4O[C@H](CO[C@H]5OC[C@@H](O)[C@H](O)[C@H]5O)[C@@H](O[C@@H]5O[C@H](CO[C@H]6OC[C@@H](O)[C@H](O)[C@H]6O)[C@@H](O)[C@H](O)[C@H]5O)[C@H](O)[C@H]4O)[C@H](O)[C@H]3O)[C@H](O)[C@H]2O)c(Cl)c1
Put plainly: purified protein. It counts as biochemical, Cellvibrio japonicus.

The Km is the substrate concentration at which the rate is half of its maximum. By kcat is commonly meant the maximal rate divided by the concentration of active sites. What is called kcat/Km is the turnover number divided by the Michaelis constant.

Take `O=C(CBr)N[C@@H]1O[C@H](CO)[C@@H](O[C@@H]2O[C@H](CO[C@H]3OC[C@@H](O)[C@H](O)[C@H]3O)[C@@H](O[C@@H]3O[C@H](CO[C@H]4OC[C@@H](O)[C@H](O)[C@H]4O)[C@@H](O[C@@H]4O[C@H](CO[C@H]5OC[C@@H](O)[C@H](O)[C@H]5O)[C@@H](O)[C@H](O)[C@H]4O)[C@H](O)[C@H]3O)[C@H](O)[C@H]2O)[C@H](O)[C@H]1O` [XXXG-NHCOCH2Br]: the KI (inactivation) on CjGH5D came to 1.78 ± 0.17 mM.

B1: CjGH5E (Cellvibrio japonicus Ueda107) (protein)
chain: SSSGSSLTSVELTRLMGVGWNVGNTLDAIGGETNWGNPLITQQLISSVKAAGFKTLRVPVAWSKFTNAATFTIDPAWLNRVEQVVNYALNEDMYVMINIHWDGGWMQPTYAQQAYVNNRLSIMWTQIANHFRNYGDKLLFAGTNEVMVEGDYGTPTVEYYTVQNSFNQTFVDTVRATGGNNANRFLVVQGFNTNIDHTVNFARIPTDSASNRLLMEVHYYDPYNFTLNTSSNITQWGAIATNPAVTETWANEAYADAQFEKMRTNFINRGVGVILGEYGVVSRLNVSGHETFRVYYNQYITKSAYQRGLVPVYWDNGYSGDGGFALFDRNSGNQLYPDIIRAIVNATF
notes: GH5_4 catalytic module, signal peptide and CBM2-CBM10 removed; N-terminal His6 (pMCSG53), E. coli
Regarding B1, the Km in the data set “purified protein [1]” came to 11800 ± 600 µM; in “purified protein [2]” (50 mM phosphate pH 7.5, 55 °C), 10 ± 1 µM; in “purified protein [3]”, 5020 ± 350 µM; in “purified protein [4]” (50 mM phosphate pH 7.5, 55 °C), 10 ± 1 µM. Moreover, the kcat in “purified protein [1]” came to 3.18 ± 0.117 s⁻¹; in “purified protein [2]” (50 mM phosphate pH 7.5, 55 °C) it was 5.53 ± 0.15 s⁻¹; in the data set “purified protein [3]”, 3 ± 0.117 s⁻¹; in “purified protein [4]” (50 mM phosphate pH 7.5, 55 °C), 4.23 ± 0.0667 s⁻¹. For the same molecule, the kcat/Km in “purified protein [1]” came out at 270 ± 16.7 M⁻¹ s⁻¹; in “purified protein [2]” (50 mM phosphate pH 7.5, 55 °C) it was 553000 ± 56700 M⁻¹ s⁻¹; in “purified protein [3]” it was 598 ± 46.7 M⁻¹ s⁻¹; in the data set “purified protein [4]” (50 mM phosphate pH 7.5, 55 °C), 423000 ± 43300 M⁻¹ s⁻¹.

B2: CjGH5F (Cellvibrio japonicus Ueda107) (protein)
chain: FSVTVGGSSSGTMRNLTSVQLARLMGAGWNLGNSLEAIGSETAWGNPATTQALINAVKAAGFKTIRIPVSWSQYADANYNISSSWMARVKQVVDYAKNAGFYVIINIHWDGGWMQPTYANQAAVNSRLTKLWTQIANNFKNYDDYLLFAGTNEVMVDGDYGTPTYEYYTVQNSFNQTFVNTVRATGGNNAVRHLVVQGFNTNIDHTISFVSIPSDSASNRLMMEVHYYDPYNFTLNASSNIWQWGANATNSSATETWANETYVNTQFQRMKTRFIDNGVAVILGEFGAISRTNIPGAESYRTYWNQYITRAAYTRGLVPIYWDNGYTANNGMGLFDRYNGAQVYPNLISTIINAAQ
notes: C-terminal GH5_4 catalytic module, signal peptide and FN3 domain removed; N-terminal His6 (pET28a), E. coli
Turning to B2, in “purified protein [2]” (50 mM phosphate pH 7.0, 50 °C), the Km is 30 ± 2 µM, the turnover number (kcat) came to 6.55 ± 0.133 s⁻¹ and the catalytic efficiency (kcat/Km) was determined as 218000 ± 15000 M⁻¹ s⁻¹. For the same molecule, in the data set “purified protein [4]” (50 mM phosphate pH 7.0, 50 °C), the Km stood at 70 ± 10 µM, the turnover number (kcat) came out at 2.82 ± 0.0667 s⁻¹ and the specificity constant (kcat/Km) was 40200 ± 5830 M⁻¹ s⁻¹.

B3: CjGH5D (Cellvibrio japonicus Ueda107) (protein)
chain: GLYPSYNTSPAAPDSTGMQSTAVQLAGKIRLGWNIGNTMEAIGGETAWGNPMVSNELLKLVKDSGFDAVRIPVAWDQYANQESAEISAAWLNRVKQVVQMAIDNELYVLINIHWDGGWLENNITPAKKDENNAKQKAFWEQIATHLRDFDEHLLFAGTNEPNAENAEQMDVLNSYLQTFVDAVRSTGGKNAYRVLVLQGPVTDIEKTNELWTHMPADTATDRLMAEVHFYTPYNFALMRQDESWGKQFYYWGEGFLSTTDTERNPTWGEEATIDQLFDLMKTKFVDQGIPVVLGEFSAMRRTNLTGDALTLHLAGRAYYHKYVTQQALARGLLPFYWDNGGNDNFSSGIFNRQQNTVFDQQVLDALLEGAGAQ
notes: GH5_4 catalytic module, lipoprotein signal peptide and serine-rich linker removed; N-terminal His6 (pET28a), E. coli; borders 96-468 are those of the crystal model
B3: in “purified protein [2]” (50 mM phosphate pH 7.5, 50 °C), the Km stood at 180 ± 20 µM, the turnover number (kcat) was 2.7 ± 0.0667 s⁻¹ and the specificity constant (kcat/Km) was 15000 ± 1720 M⁻¹ s⁻¹. Moreover, in the data set “purified protein [4]” (50 mM phosphate pH 7.5, 50 °C), the Km amounted to 810 ± 100 µM, the kcat is 4.68 ± 0.2 s⁻¹ and the kcat/Km worked out at 5780 ± 750 M⁻¹ s⁻¹.
